Assay results reported in patent US20240082414A1, “HUMAN TUMOR NECROSIS FACTOR ALPHA ANTIBODY GLUCOCORTICOID CONJUGATES” (Eli Lilly and Company, priority 2022, published 2024).

Legend:
[1] = target: human FcγRI (CD64) extracellular domain (human) (UniProt P12314); assay: SPR (Biacore), antibody captured on Protein A, FcγR ECD as analyte, 25° C.
[2] = target: human FcγRIIA_131R (CD32a) extracellular domain (human) (UniProt P12318); assay: SPR (Biacore), antibody captured on Protein A, FcγR ECD as analyte, steady state, 25° C.
Chain of human FcγRIIA_131R (CD32a) extracellular domain (human) (P12318 34-217 H167R limits assumed): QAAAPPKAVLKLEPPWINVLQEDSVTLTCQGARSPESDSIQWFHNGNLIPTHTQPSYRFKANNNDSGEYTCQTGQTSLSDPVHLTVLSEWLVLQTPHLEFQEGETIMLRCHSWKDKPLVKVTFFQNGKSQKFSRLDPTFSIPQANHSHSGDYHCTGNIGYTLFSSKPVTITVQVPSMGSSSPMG

[3] = target: human FcγRIIA_131H (CD32a) extracellular domain (human) (UniProt P12318); assay: as above
Chain of human FcγRIIA_131H (CD32a) extracellular domain (human) (P12318 34-217): as the sequence (P12318 34-217 H167R limits assumed) above, with R134H counted along it

[4] = target: human FcγRIIb (CD32b) extracellular domain (human) (UniProt P31994); assay: as above
Chain of human FcγRIIb (CD32b) extracellular domain (human) (P31994 43-217): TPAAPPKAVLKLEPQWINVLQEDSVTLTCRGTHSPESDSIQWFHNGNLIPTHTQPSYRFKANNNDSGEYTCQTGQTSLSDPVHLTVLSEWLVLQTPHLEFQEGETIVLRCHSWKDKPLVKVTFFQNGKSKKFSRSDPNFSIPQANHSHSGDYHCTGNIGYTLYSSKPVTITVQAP

[5] = target: human FcγRIIIA_158F (CD16a) extracellular domain (human) (UniProt P08637); assay: as above
Chain of human FcγRIIIA_158F (CD16a) extracellular domain (human) (P08637 17-208): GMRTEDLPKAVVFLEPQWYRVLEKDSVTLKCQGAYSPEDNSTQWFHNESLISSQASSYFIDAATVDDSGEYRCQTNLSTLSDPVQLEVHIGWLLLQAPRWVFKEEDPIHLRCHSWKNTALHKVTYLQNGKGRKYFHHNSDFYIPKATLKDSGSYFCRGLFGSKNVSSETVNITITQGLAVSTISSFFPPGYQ

Chain of human FcγRI (CD64) extracellular domain (human) (P12314 16-292): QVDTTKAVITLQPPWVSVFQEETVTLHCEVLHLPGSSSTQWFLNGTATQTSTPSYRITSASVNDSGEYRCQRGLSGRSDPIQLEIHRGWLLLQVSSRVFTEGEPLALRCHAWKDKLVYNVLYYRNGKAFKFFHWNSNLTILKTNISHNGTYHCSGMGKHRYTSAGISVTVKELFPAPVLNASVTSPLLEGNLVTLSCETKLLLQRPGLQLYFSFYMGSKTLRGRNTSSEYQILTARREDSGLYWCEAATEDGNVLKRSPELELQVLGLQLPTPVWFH

- Kd [1]: 0.0479 nM
- Kd [2]: 570 nM
- Kd [3]: 570 nM
- Kd [4]: 2810 nM
- Kd [5]: 820 nM
Substance: human IgG1 isotype control antibody
